Data on 41 sequences can be found in the nanobody polyreactivity screen of Harvey et al. (2022).

This data set can be described thus: yeast display, Sf9 membrane polyspecificity reagent, FACS + sequencing; frameworks hold sequencing errors. Summed up: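 A synthetic nanobody library was expressed on Saccharomyces cerevisiae BJ5465 by galactose induction for 36–48 hours. The library was stained for 1 hour at 4 °C with 10% biotinylated, detergent-solubilized Sf9 membrane reagent and enriched with streptavidin microbeads before FACS. Low and high (top ~1%) gates were set on anti-HA fluorescence for expression and streptavidin fluorescence for reagent binding, and each polyreactivity label reflects the gate of origin.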
Turning to “QVQLVESGGGLVQAGGSLRLSCAASGRIFRYYAMGWYRQAPGKEREFVAAINSSGVNTYYADSVKGRFTISRDNAKNTVYLQMNSLKPEDTAVYYCAADWYQWGGRYYAPRYYYWGQGTQVTVSS”, the “polyreactivity (PSR sort gate)” value is on record as “high polyreactivity”.

Consider “QVQLVESGGGLVQAGGSLRLSCAASGRIFRYYAMGWYRQAPGKERELVAAINWGGGSTYYADSVKGRFTISRDNAKNTVYLQMNSLKPEDTAVYYCNRDRNSFPHYFSHYGYWGQGTQVTVSS”, for which the “polyreactivity (PSR sort gate)” value is given as “high polyreactivity”.

Take “QVQLVESGGGLVQAGGSLRLSCAASGRIFRYYAMGWYRQAPGKERELVAAISDSSGSTYYADSVKGRFTISRDNAKNSVYLQMNCLKPEDTAVYYCRYYFGSGYYYWGEGTQVTVSS”: the “polyreactivity (PSR sort gate)” value is “high polyreactivity”.

Take “QVQLVESGGGLVQAGGSLRLSCAASGRIFRYYAMGWYRQAPGKERELVAAISKSGGSTYYADSVKGRFTISRDNAKNTVYFQMNSLKPEDTGVYYCNARSRLGGLYEYWGQGTQVTVSS”: the “polyreactivity (PSR sort gate)” value is given as “high polyreactivity”.

Regarding “QVQLVESGGGLVQAGGSLRLSCAASGRIFRYYAMGWYRQAPGKERELVAAISWSGTSTYYADSVKGRFTISRDNAKNTVYLQMNSLKPEDTAVYYCAKVGYQYATYRSDYWGQGTQVTVSS”, the “polyreactivity (PSR sort gate)” value is “high polyreactivity”.

As for “QVQLVESGGGLVQAGGSLRLSCAASGRIFRYYAMGWYRQAPGKERELVAAISYSGGRTYYADSVKGRFTISRDNAKNTVYLQMNSLKPEDTAVYYCARFWHSQSSYVPFDSWGQGTQVTVSS”, the “polyreactivity (PSR sort gate)” value is given as “high polyreactivity”.

Turning to “QVQLVESGGGLVQAGGSLRLSCAASGRIFRYYAMGWYRQAPGKERELVAAISYSTGGTYYADSVKGRFTISRDNAKNTVYLQMNSLKPEDTAVYYCATSAYQIYPRYGYWGQGTQVTVSS”, the “polyreactivity (PSR sort gate)” value is listed as “high polyreactivity”.

For the sequence “QVQLVESGGGLVQAGGSLRLSCAASGRIFRYYAMGWYRQAPGKERELVAAITQRGGSTYADSVKGRFTISRDNAKNTVYLQMNSLKPEDTAVYYCAYRGSFLYDYWGQGTQVTVSS”, the “polyreactivity (PSR sort gate)” value is “low polyreactivity”.

“QVQLVESGGGLVQAGGSLRLSCAASGRIFRYYAMGWYRQAPGKERELVAAITWRGDSTYYADSVKGRFTISRDNAKNTVYLQMNSLKPEDTAVYYCNKRWTDKYDSWGQGTQVTVSS”: the “polyreactivity (PSR sort gate)” value is given as “high polyreactivity”.

For the sequence “QVQLVESGGGLVQAGGSLRLSCAASGRIFRYYAMGWYRQAPGKERELVAGITIGGSTNYADSVKGRFTISRDNAKNTVYLLMISLKPEDTAVYYCAAVQHDENEYWGQGTQVTVSS”, the “polyreactivity (PSR sort gate)” value was “low polyreactivity”.

For “QVQLVESGGGLVQAGGSLRLSCAASGRIFRYYAMGWYRQAPGKERELVATIRSGGSTNYADSVKGRFTISRDNAKNTVYLQMNSLKPEDTEVYYCAATGGILSTYDYWGLGTQVTVSS”, the “polyreactivity (PSR sort gate)” value was “high polyreactivity”.

As to “QVQLVESGGGLVQAGGSLRLSCAASGRIFRYYAMGWYRQAPGKERELVGSITYSGGRTNYADSVKGRFTISRDNAKNTVYLQMNSLKPEDTAVYYCNAAYVYYYPHYRYAPTAVDYDYWGQGTQVTVSS”, the “polyreactivity (PSR sort gate)” value is “low polyreactivity”.

As for “QVQLVESGGGLVQAGGSLRLSCAASGRIFRYYAMVWYRQAPRKERELVAGITRGGTTNYADSVKGRFTISRDNAKNTVYLQMNSLKPEDTAVYYCAADTRRGIIGYDYWGQGTQVTVSS”, the “polyreactivity (PSR sort gate)” value was “high polyreactivity”.

For “QVQLVESGGGLVQAGGSLRLSCAASGRIFRYYVMGWYRQAPGKERELVAAISRSGGTTYYADSVKGRFTISRDTATNTVYLQMNSLKREDTAVFYCAAVYGRDPGDYWGQGTQVTVSS”, the “polyreactivity (PSR sort gate)” value is on record as “high polyreactivity”.

As for “QVQLVESGGGLVQAGGSLRLSCAASGRIFSAYAMGWYRQAPGKERELVAAISRSGGRTYYADSVKGRFTISRDNAKNTVYLQMNSLKPEDTAVYYCAAARFAIVRGDYWGQGTQVTVSS”, the “polyreactivity (PSR sort gate)” value is given as “high polyreactivity”.

As for “QVQLVESGGGLVQAGGSLRLSCAASGRIFSAYAMGWYRQAPGKERELVAAISSGGRTYYADSVKGRFTISRDNAKNTVYLEMYRLKPEDTAVYFCNAVALWGRDYGYWGQGTQVSVSS”, the “polyreactivity (PSR sort gate)” value was “high polyreactivity”.

On to “QVQLVESGGGLVQAGGSLRLSCAASGRIFSAYAMGWYRQAPGKERELVAVISSGDSTNYADSVKGRFTISRDNAKNTVYLQMNSLKPEDTAVYYCNARGKHRYGFRSHVGNEYWGQVTQVTVSS”, for which the “polyreactivity (PSR sort gate)” value is “low polyreactivity”.

As to “QVQLVESGGGLVQAGGSLRLSCAASGRIFSDYAMGWYRQAPGKERELVAAISRSGTRTYYADSVKGRFTISRDNAKNTVYLQMNSLKPEDTAVYYCAAKTPYGRAGQEEDYWGQGTQVTVSS”, the “polyreactivity (PSR sort gate)” value was “high polyreactivity”.

Consider “QVQLVESGGGLVQAGGSLRLSCAASGRIFSEYALGWYRQAPGKERELVAAITRRGGSTYYADSVKGRFTISRYNAKNTVYLQMNSLKPEDTAVYYCNALLTGGYQDSYPADYWGQGTQVTVSS”, for which the “polyreactivity (PSR sort gate)” value was “high polyreactivity”.

Consider “QVQLVESGGGLVQAGGSLRLSCAASGRIFSFNAMGWYRQAPGKERELVAAISWSTGSTFYADSVKGRFTISRDNAKNTVYLQMNSLKPEDTAVYYCATGFPHPKRNVNRRNYWGQGTQVTVSS”, for which the “polyreactivity (PSR sort gate)” value is “high polyreactivity”.

As for “QVQLVESGGGLVQAGGSLRLSCAASGRIFSFNAMGWYRQAPGKERELVAGITYGGNTYYADSVKGRFTISRDNAKNTVYLQMNSLKPEDTAVYYCAAVRGGRHDYWGQGTQVTVSS”, the “polyreactivity (PSR sort gate)” value is reported as “low polyreactivity”.

Consider “QVQLVESGGGLVQAGGSLRLSCAASGRIFSFSAMGWYRQAPGKERELVAAISYSGGRTYYADSGKGRFTISRDNAKNTVYLQMNSLKPDDTAVYDCNAGRVLRLAYNYWGQGTQVTVSS”, for which the “polyreactivity (PSR sort gate)” value is given as “low polyreactivity”.

On to “QVQLVESGGGLVQAGGSLRLSCAASGRIFSFYTMGWSRQAPGKERELVAAISNVGGTDYADSVKGRFTISRDNAKNTVYLQMNSLKPEDTAVYYCHAAWGRYFRYRWYTNGLDYWGQGTQVTVSS”, for which the “polyreactivity (PSR sort gate)” value is “low polyreactivity”.

“QVQLVESGGGLVQAGGSLRLSCAASGRIFSGNAMGWYRQAPGKERELVANITSSSNTNYADSVKGRFTISRDNAKNTVYLQMNSLKPEDTAVYYCAKSAHNGYSFYGYDYWGQGTQVTVSS”: the “polyreactivity (PSR sort gate)” value is reported as “low polyreactivity”.

For the sequence “QVQLVESGGGLVQAGGSLRLSCAASGRIFSGNGMGWYRQAPGKEREFVAAIRFSSGSTYYADSVKGRFTISRDNAKNTVYLQMNSLKPEDTAVYYCARPSIPRRYDYWGQGTQVTVSS”, the “polyreactivity (PSR sort gate)” value is “high polyreactivity”.

As for “QVQLVESGGGLVQAGGSLRLSCAASGRIFSGYAMGWDRQAPGKERELVAAISSTGGTYYADSVKGRFTISRDNAKNTVYLQMNSLKPEDTAVYYCAADTYGYQGSAGGHWGQGTQVTVSS”, the “polyreactivity (PSR sort gate)” value is reported as “low polyreactivity”.

Consider “QVQLVESGGGLVQAGGSLRLSCAASGRIFSGYAMGWYRQAPGKEMELVAAISNSGASTYYADSVKGRFTISRDNAKNTVYLQMNSLKPEDTAVYYCAASGRVYSSGYDYWGQGTQVTVSS”, for which the “polyreactivity (PSR sort gate)” value is given as “high polyreactivity”.

With “QVQLVESGGGLVQAGGSLRLSCAASGRIFSGYAMGWYRQAPGKERELVAAITSGASTNYADSVKGRFTISRDNAKNTVYLQMNSLKPEDTAVYYCNKKRTADYDYWGQGTQVTVSS”, the “polyreactivity (PSR sort gate)” value is “low polyreactivity”.

As to “QVQLVESGGGLVQAGGSLRLSCAASGRIFSGYAMGWYRQAPGKESELVAAITSRSGSTYYADSVKARFTISRDNAKNTVYLQMNSLKPEDTAVYYCDAEYVRFYWYTSDYWGQGTQVTVSS”, the “polyreactivity (PSR sort gate)” value is “low polyreactivity”.

Consider “QVQLVESGGGLVQAGGSLRLSCAASGRIFSHYAMGWYRQAPGKERELVAAITWSGGRTYYADSVKGRFTISRDNAKNTVYLQMNSLKPEDTAVYYSAADREARYPVEYGYWGQGTQVTVSS”, for which the “polyreactivity (PSR sort gate)” value was “low polyreactivity”.

On to “QVQLVESGGGLVQAGGSLRLSCAASGRIFSINVKGWYRHAPGKERELVAAISKRGGSTYYADSVKGRFTISRDNAKNTVYLQMNSLKPEDTAVYYCAARRHYTYGNGPSRGGQMDYWGQGTQVTVSS”, for which the “polyreactivity (PSR sort gate)” value is given as “high polyreactivity”.

Take “QVQLVESGGGLVQAGGSLRLSCAASGRIFSIYGMGWYRQAPGKERELVAVISGSVGITYYADSVKGRFTISRDNAKNTVYLQMNSLKPEDTAVYYSNAKVRRRKYDYWGQGTQVTVSS”: the “polyreactivity (PSR sort gate)” value is on record as “high polyreactivity”.

As for “QVQLVESGGGLVQAGGSLRLSCAASGRIFSKNAMGWYRQAPGKERELVAAIDSSGDSTNYADSVKGRFTISRDNAKNTVYLQMNSLKTEDTAVYYCAATLGYRWSGFEYWGLGTQVTVSS”, the “polyreactivity (PSR sort gate)” value was “high polyreactivity”.

In the case of “QVQLVESGGGLVQAGGSLRLSCAASGRIFSKYAMGWYRQAPGKERELVASIRWRGDRTYYADSVKGRFTISRDNAKNTVYLQMNSLKTEDTAVYYCAADEPGYGVGYWTYPVVPYDYWGQGTQVTVSS”, the “polyreactivity (PSR sort gate)” value is reported as “low polyreactivity”.

With “QVQLVESGGGLVQAGGSLRLSCAASGRIFSLNAMGWYRQAPGKERELVAGIRKSGGSTYYADSVKGRFTISRDNAKNTVYLQMNSLKPEDTAVYYCAAQPALTYRFYYWGQGTQVTVSS”, the “polyreactivity (PSR sort gate)” value was “high polyreactivity”.

Consider “QVQLVESGGGLVQAGGSLRLSCAASGRIFSLYAMGWYRPAPGKEMELVAAITGIGGSTYYADSVKGRFTISRDNAKNTVYLQMNSLKPDDTAVYYCAARYPATYPSMGYWGQGTQLTVSS”, for which the “polyreactivity (PSR sort gate)” value is reported as “low polyreactivity”.

For “QVQLVESGGGLVQAGGSLRLSCAASGRIFSLYAMGWYRPAPGKERELVAAITWRGGGTYYADSVKGRITISRDNAKNTVFLQMNSLKPEDTAVYYCAAEVKHIFYGYWGQGTQVTVSS”, the “polyreactivity (PSR sort gate)” value was “high polyreactivity”.

As to “QVQLVESGGGLVQAGGSLRLSCAASGRIFSLYAMGWYRQAPGKDRELVAAISRGGSTYYADSVKGRFTISRDNAKNTVYLQMNSLKPEDTAVSYCARRYWYPDAFYRYDYWGQGTQVTVSS”, the “polyreactivity (PSR sort gate)” value is on record as “low polyreactivity”.

Take “QVQLVESGGGLVQAGGSLRLSCAASGRIFSNNAMGWYRQAPGKERELVAAITNSGGSTYYADSVKGRFTISRDNAKNTVYLQMNSLKPEDTAVYYCNARSKVAYYRHYYWGQGTQVTVSS”: the “polyreactivity (PSR sort gate)” value is “low polyreactivity”.

As to “QVQLVESGGGLVQAGGSLRLSCAASGRIFSPNAMGWSRQAPGKERELVAAITRGGSTNYADSVKGRFTISRDNAKYTVYLQMNSLKPEDTAVYFCAALLAKTISGRGYNSWGQGTQVTVSS”, the “polyreactivity (PSR sort gate)” value is given as “low polyreactivity”.

For “QVQLVESGGGLVQAGGSLRLSCAASGRIFSPYAMGWYRQAPGKERELVARISWRGSRTYYADSVKGRFTISRDNAKNTVYLQMNSLKPEDTAVYYCNAVFYRKPLRRDYWVQGTQVTVSS”, the “polyreactivity (PSR sort gate)” value is on record as “high polyreactivity”.
